Assay results from patent publication US20220259298A1 (KYOTO UNIVERSITY, published 2022).
Where a chain is given by its changes, count along the chain named. Like-named read-outs stand apart in the source and are kept apart here.

Columns and labels:
[1] = target: T1, human FLAG-tagged USAG-1 transiently forcibly expressed in HEK293 cells (human, UniProt Q6X4U4 24-206); assay: immunostaining of HEK293 cells transiently expressing human FLAG-tagged USAG-1
T1 construct: whole, on cells; Immunostaining of transfected cells; not shown: FLAG tag
T1 sequence (looked up): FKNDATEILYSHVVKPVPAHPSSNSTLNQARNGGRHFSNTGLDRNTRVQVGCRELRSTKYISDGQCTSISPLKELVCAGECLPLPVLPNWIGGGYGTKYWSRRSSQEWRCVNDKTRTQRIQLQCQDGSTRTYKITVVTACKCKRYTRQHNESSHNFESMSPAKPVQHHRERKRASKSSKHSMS

human USAG-1 protein [2] = target: T2, human USAG-1 protein (human, UniProt Q6X4U4 24-206); assay: solid-phase ELISA of the hybridoma clone on the immunizing antigen (E. coli-derived human USAG-1, R & D systems), paragraph 134
T2 construct: mature
T2 sequence (looked up): T1 sequence (looked up)

[3] = target: T3, 15 amino acid peptide for epitope mapping VNDKTRTQRIQLQCQ (SEQ ID NO: 37) (human); assay: peptide array on cellulose membrane, HRP-conjugated anti-mouse antibody, ECL
T3 peptide: VNDKTRTQRIQLQCQ
Protocol: (§1) Briefly, 169 overlapping peptides of 15 amino acids were synthesized based on a human USAG-1 protein sequence (183 amino acid length) excluding a signal peptide by shifting the 15 amino acid sequence from the beginning by one amino acid to prepare a peptide library. The 169 kinds of peptides were bound onto a cellulose membrane to prepare a peptide array. […] After washing, an HRP-conjugated anti-mouse antibody (1/25000 dilution) was added as a secondary antibody, and ECL solution was used for color development.

[4] = target: T4, 15 amino acid peptide for epitope mapping WRCVNDKTRTQRIQL (SEQ ID NO: 34) (human); assay: as above
T4 peptide: WRCVNDKTRTQRIQL
Protocol: as §1

[5] = target: T5, 15 amino acid peptide for epitope mapping CVNDKTRTQRIQLQC (SEQ ID NO: 36) (human); assay: as above
T5 peptide: CVNDKTRTQRIQLQC
Protocol: as §1

[6] = target: T6, 15 amino acid peptide for epitope mapping RCVNDKTRTQRIQLQ (SEQ ID NO: 35) (human); assay: as above
T6 peptide: RCVNDKTRTQRIQLQ
Protocol: as §1

[7] = target: T7, 15 amino acid peptide for epitope mapping QEWRCVNDKTRTQRI (SEQ ID NO: 32) (human); assay: as above
T7 peptide: QEWRCVNDKTRTQRI
Protocol: as §1

[8] = target: T8, 15 amino acid peptide for epitope mapping EWRCVNDKTRTQRIQ (SEQ ID NO: 33) (human); assay: as above
T8 peptide: EWRCVNDKTRTQRIQ
Protocol: as §1

[9] = target: T9, N-terminal PA-tagged mouse USAG-1 (WISE) recombinant protein (mouse, UniProt Q9CQN4 24-206); assay: BLI (Octet), antibody immobilized on the biosensor, mouse USAG-1 at 10, 30, 100 nM, global fitting
T9 construct: The pull-downs used culture supernatant of Expi293F cells; also called PA-mUSAG-1 (WISE); purified full-length recombinant mouse USAG-1; not shown: PA tag at the N-terminal
T9 sequence (looked up): T1 sequence (looked up) with N39S, T46S, M159V, V165A, M182L
Protocol: For 8 out of the 9 antibodies grouped in Example 8, affinities (KD values) were determined by using the same Octet-based BLI method as in Example 8. […] The affinities were calculated by subjecting the obtained curves to global fitting with an analysis program attached to the Octet device.

[10] = target: T9, N-terminal PA-tagged mouse USAG-1 …; assay: cell-based or functional assay
human USAG-1 protein [11] = target: T2, human USAG-1 protein; assay: solid-phase ELISA of the hybridoma clone on the immunizing antigen (E. coli-derived human USAG-1, R & D systems), paragraph 134; remark: listed apart in the source

B1: mouse anti-USAG-1 neutralizing antibody A (E37) (antibody, mouse IgG1, kappa, V domains shown)
VH: QVQLQQSDAELVNPGASVKISCKVSGYTFTDHTIHWMKQRPEQGLEWIGYIYPGDGSTKYNEKFKGKATLTADKSSSTAYMQLNSLTSEDSAVYFCARTETYYGRIYYYAMDYWGQGTSVTVSS
VL: QIVLSQSPAILSASPGEKVTMTCRASSSVSYMYWYQQKPGSSPKPWIYATSNLASGVPIRFSGSGSGTSYSLTISRVEAEDAATYYCQQWSSNLTFGAGTKLELKR
B1: binds [1]; binds (human USAG-1 protein [2]); binds [3]. B1: binds [4]; binds [5]; binds [6]. The binding result [7] was “binds”, the binding result [8] was “binds” and the Kd [9] was 2.43 nM.

B2: mouse anti-USAG-1 neutralizing antibody C (B14) (antibody, V domains shown)
VH: EVQLQQSGPELVKPGASVKISCKASGYSFTGYYMNWVKQSPEKSLEWIGEINPTTGGTTYNQKFKAKATLTVDKSSSTAYMQLKSLTSEDSAVYYCARLHYDYDGVGYAMDYWGQGTSVTVSS
VL: DIVMTQSHKFMSTSVGDRVSITCKASQDVSTAVAWYQQKPGQSPKLLIYSASYRYTGVPARFTGSGSGTDFTFTISSVQAEDLAVYYCQQHYSTPPTFGGGTKLEIKR
notes: Raised against baculovirus-derived rat USAG-1
For B2, the Kd [9] was 4.21 nM, the “EC50 against the BMP signaling inhibition by USAG-1 (BMP ALP assay, C2C12 cells, BMP7)” value [10] was 0.298 µg/mL and the “EC50 against the Wnt signaling inhibition by USAG-1 (WNT reporter assay, luciferase)” value [10] was 4.73 µg/mL.

B3: mouse anti-USAG-1 neutralizing antibody E (B103) (antibody, mouse IgG1, kappa, V domains shown)
VH: DVQLQESGPGLVKPSQSLSLTCSVTGYSITSGYYWNWIRQFPGNKLEWMGCISYDGSNNYNPSLKNRISITRDTSKNQFFLKLNSVTTEDTATYYCARGGLLWGQGTTLTVSS
VL: DIQMTQSPSSLSASLGERVSLTCRASQEISGYLSWLQQKPDGNIKRLIYAASTLDSGVPKRFSGSRSGSDYSLTISRLESEDFADYYCLQYASYPWTFGGGTKLEIKR
notes: as for B2
For B3, the Kd [9] was 4.97 nM.

B4: mouse anti-USAG-1 neutralizing antibody B (E57) (antibody, mouse IgG1, kappa, V domains shown)
VH: EVQLQQSGPELVKPGASVKISCKTSGYSFTGYYMSWVKQSPEKSLEWIGEINPTTGGSTYNQKFKAKATLTVDKSSSTAYMQLKSLTSEDSAVYYCAREGYYSGISYDAMDYWGQGTSVTVSS
VL: DIQMTQTTSSLSASLGDRVTISCRASQDISNYLSWYQQKPDGTVKLLIYYTSRLHSGVPSRFSGSGSGTDYSLTISNLEQEDIATYFCQQGNTLPRTFGGGTKLEIKR
With B4 the binding result [1] was “binds”, the binding result (human USAG-1 protein [11]) was “binds” and the Kd [9] was 2.44 nM.
